Measurements taken from the supplement of paper PMC7877785.
± gives the uncertainty stated by the source.

Experiment: self-splicing fitness, log relative to wild type (ln ratio); higher = more splicing; Tetrahymena group I intron in knt gene, E. coli kanamycin selection, DiMSum; sequences stand for … in CUCUCU…GGAGGGAAAAGUUAUCAGGCAUGCACCUGGUAGCUAGUCUUUAAACCAAUAGAUUGCAUCGGUUUAAAAGGCAAGACCGUCAAAUUGCGGGAAAGGGGUCAACAGCCGUUCAGUACCAAGUCUCAGGGGAAACUUUGAGAUGGCCUUGCAAAGGGUAUGGUAAUAAGCUGACGGACAUGGUCCUAACCACGCAGCCAAGUCCUAAGUCAACAGAUCUUCUGUUGAUAUGGAUGCAGUUCACAGACUAAAUGUCGGUCGGGGAAGAUGUAUUCUUCUCAUAAGAUAUAGUCGGACCUCUCCUUAAUGGGAGCUAGCGGAUGAAGUGAUGCAACACUGGAGCCGCUGGGAACUAAUUUGUAUGCGAAAGUAUAUUGAUUAGUUUUGGAGUACUCGUGGUCG
Method in brief: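 A randomised library covering all eight P1ex-region intron nucleotides was built with the intron in the knt kanamycin-resistance gene on pET-22b(+) and held in E. coli BL21(DE3). Cells were grown overnight at 37°C or 30°C on LB agar, with or without 25 μg/mL kanamycin, plus 100 μg/mL carbenicillin, 50 μM IPTG and 0.2% rhamnose, and pooled colonies were amplicon-sequenced on an Illumina HiSeq 2500. DiMSum fitness is the error-weighted combination of wild-type-normalised replicate fold changes, kanamycin versus none.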

Sequence	self-splicing fitness (ln) (30 °C)	self-splicing fitness (ln) (37 °C)
AACUAGCAAUAUUACGGAUU	-1.16 ± 0.088	-0.792 ± 0.1
AACUAGCAAUAUUACGGCCG	-0.725 ± 0.1	0.273 ± 0.13
AACUAGCAAUAUUACGGGCA	-0.872 ± 0.079	-0.13 ± 0.088
AACUAGCAAUAUUACGGUCU	-0.472 ± 0.055	0.465 ± 0.07
AACUAGCAAUAUUACGGUUU	-3.29 ± 0.12	-2.62 ± 0.17
AACUAGCAAUAUUACGUAGA	-1.76 ± 0.079	-0.779 ± 0.11
AACUAGCAAUAUUACGUCUU	0.0966 ± 0.067	0.781 ± 0.083
AACUAGCAAUAUUACGUUAC	-1.79 ± 0.13	-1.96 ± 0.2
AACUAGCAAUAUUACGUUAG	-3.12 ± 0.17	-3.33 ± 0.26
AACUAGCAAUAUUACGUUCA	-1.3 ± 0.1	-0.728 ± 0.12
AACUAGCAAUAUUACGUUCU	-1.55 ± 0.061	-1.14 ± 0.079
AAGAAGCAAUAUUACGAACG	-0.96 ± 0.11	-0.286 ± 0.14
AAGAAGCAAUAUUACGACAG	-2.2 ± 0.11	-0.487 ± 0.1
AAGAAGCAAUAUUACGACUU	-0.363 ± 0.061	-0.819 ± 0.078
AAGAAGCAAUAUUACGAGUA	-0.78 ± 0.26	-1.44 ± 0.21
AAGAAGCAAUAUUACGCAGA	-2.35 ± 0.17	-1.5 ± 0.11
AAGAAGCAAUAUUACGCCAU	-2.82 ± 0.24	-2.62 ± 0.27
AAGAAGCAAUAUUACGCCCA	-0.613 ± 0.21	-1.85 ± 0.44
AAGAAGCAAUAUUACGCCGA	-0.879 ± 0.12	-0.757 ± 0.15
AAGAAGCAAUAUUACGCCUA	-0.339 ± 0.12	-0.209 ± 0.13
AAGAAGCAAUAUUACGCGAC	-3.25 ± 0.24	-1.53 ± 0.13
AAGAAGCAAUAUUACGCGAG	-0.936 ± 0.081	-0.561 ± 0.1
AAGAAGCAAUAUUACGCGUA	-1.39 ± 0.099	-0.914 ± 0.082
AAGAAGCAAUAUUACGGAGC	-3.35 ± 0.24	-2.66 ± 0.23
AAGAAGCAAUAUUACGGAUU	-1.37 ± 0.097	-0.421 ± 0.12
AAGAAGCAAUAUUACGGGUA	-2.35 ± 0.16	-0.422 ± 0.12

Sequence	self-splicing fitness (ln) (30 °C)	self-splicing fitness (ln) (37 °C)
AAGAAGCAAUAUUACGGGUU	-1.57 ± 0.15	-1.41 ± 0.14
AAGAAGCAAUAUUACGUAUU	-2.28 ± 0.16	-1.43 ± 0.12
AAGAAGCAAUAUUACGUCCG	-0.7 ± 0.073	-0.283 ± 0.099
AAGAAGCAAUAUUACGUCCU	-0.0351 ± 0.12	0.363 ± 0.16
AAGAAGCAAUAUUACGUCGU	-1.31 ± 0.058	-0.567 ± 0.073
AAGAAGCAAUAUUACGUCUC	-2.04 ± 0.12	-1.69 ± 0.16
AAGCAGCAAUAUUACGAACA	-1.56 ± 0.13	-0.603 ± 0.13
AAGCAGCAAUAUUACGAACG	-2.31 ± 0.094	-0.98 ± 0.11
AAGCAGCAAUAUUACGAACU	-0.292 ± 0.07	-1 ± 0.069
AAGCAGCAAUAUUACGACCA	-0.635 ± 0.12	-0.265 ± 0.14
AAGCAGCAAUAUUACGAGAG	-4.01 ± 0.29	-2.49 ± 0.25
AAGCAGCAAUAUUACGCACC	-0.735 ± 0.085	0.0945 ± 0.09
AAGCAGCAAUAUUACGCAUA	-2.01 ± 0.11	-0.237 ± 0.1
AAGCAGCAAUAUUACGCCCA	-0.461 ± 0.15	0.244 ± 0.23
AAGCAGCAAUAUUACGCUGU		-2.7 ± 0.23
AAGCAGCAAUAUUACGGACC	-1.42 ± 0.14	-0.369 ± 0.17
AAGCAGCAAUAUUACGGAUA	-2.22 ± 0.2	-1.72 ± 0.15
AAGCAGCAAUAUUACGGCUC	-1.67 ± 0.093	-0.463 ± 0.14
AAGCAGCAAUAUUACGGGCA	-0.552 ± 0.072	-0.789 ± 0.077
AAGCAGCAAUAUUACGGGCC	-1.76 ± 0.15	-1.53 ± 0.15
AAGCAGCAAUAUUACGGGGA	-3.53 ± 0.33	-1.11 ± 0.13
AAGCAGCAAUAUUACGGUAC	-3.08 ± 0.23	-2.49 ± 0.22
AAGCAGCAAUAUUACGUACG	-2.18 ± 0.12	-0.645 ± 0.13
AAGCAGCAAUAUUACGUACU	0.254 ± 0.1	0.172 ± 0.11
AAGCAGCAAUAUUACGUAGU	-2.61 ± 0.1	-2.47 ± 0.14
AAGCAGCAAUAUUACGUAUU	-2.12 ± 0.058	-1.43 ± 0.082

Sequence	self-splicing fitness (ln) (30 °C)	self-splicing fitness (ln) (37 °C)
AAGCAGCAAUAUUACGUCUA	-1 ± 0.053	-1.53 ± 0.062
AAGCAGCAAUAUUACGUUCU	-0.454 ± 0.056	0.0556 ± 0.076
AAGGAGCAAUAUUACGAGCC	-0.997 ± 0.17	
AAGGAGCAAUAUUACGAGCG	-2.53 ± 0.2	-2.19 ± 0.49
AAGGAGCAAUAUUACGAUCG	-1.99 ± 0.19	-1.8 ± 0.27
AAGGAGCAAUAUUACGCAAU	-2.67 ± 0.17	-1.71 ± 0.19
AAGGAGCAAUAUUACGCAGG	-3.65 ± 0.32	-2.22 ± 0.39
AAGGAGCAAUAUUACGCCCA	-1.88 ± 0.27	-1.46 ± 0.24
AAGGAGCAAUAUUACGCGCU	-3.5 ± 0.44	-1.5 ± 0.4
AAGGAGCAAUAUUACGCUCC		-1.7 ± 0.47
AAGGAGCAAUAUUACGCUGG	-2.18 ± 0.24	-2.24 ± 0.31
AAGGAGCAAUAUUACGGAAC		-2.52 ± 0.36
AAGGAGCAAUAUUACGGAUC	-2.64 ± 0.36	
AAGGAGCAAUAUUACGGCAG	-2.86 ± 0.33	-1.75 ± 0.32
AAGGAGCAAUAUUACGGUAG	-3.82 ± 0.29	-2.75 ± 0.26
AAGGAGCAAUAUUACGGUGU	-3.44 ± 0.24	-1.77 ± 0.19
AAGGAGCAAUAUUACGGUUA	-2.54 ± 0.34	
AAGGAGCAAUAUUACGUAAA	-2.81 ± 0.32	-0.663 ± 0.24
AAGGAGCAAUAUUACGUCUU	-1.9 ± 0.09	-1.14 ± 0.13
AAGGAGCAAUAUUACGUGCU		-2.92 ± 0.47
AAGGAGCAAUAUUACGUUUU	-3.02 ± 0.22	-1.94 ± 0.2
AAGUAGCAAUAUUACGAAUA	-3.24 ± 0.34	-2.29 ± 0.23
AAGUAGCAAUAUUACGACAG	-2.86 ± 0.18	-1.66 ± 0.21
AAGUAGCAAUAUUACGACCG	-1.89 ± 0.086	-1.35 ± 0.12
AAGUAGCAAUAUUACGACGA	0.0522 ± 0.098	0.0374 ± 0.11
AAGUAGCAAUAUUACGACUC	0.858 ± 0.25	0.537 ± 0.24
